T1: GST-fused recombinant ARHGAP25 (human, UniProt P42331 1-645)
T1 construct: also called GST-ARHGAP25; GST-tagged recombinant ARHGAP25
T1 sequence (looked up): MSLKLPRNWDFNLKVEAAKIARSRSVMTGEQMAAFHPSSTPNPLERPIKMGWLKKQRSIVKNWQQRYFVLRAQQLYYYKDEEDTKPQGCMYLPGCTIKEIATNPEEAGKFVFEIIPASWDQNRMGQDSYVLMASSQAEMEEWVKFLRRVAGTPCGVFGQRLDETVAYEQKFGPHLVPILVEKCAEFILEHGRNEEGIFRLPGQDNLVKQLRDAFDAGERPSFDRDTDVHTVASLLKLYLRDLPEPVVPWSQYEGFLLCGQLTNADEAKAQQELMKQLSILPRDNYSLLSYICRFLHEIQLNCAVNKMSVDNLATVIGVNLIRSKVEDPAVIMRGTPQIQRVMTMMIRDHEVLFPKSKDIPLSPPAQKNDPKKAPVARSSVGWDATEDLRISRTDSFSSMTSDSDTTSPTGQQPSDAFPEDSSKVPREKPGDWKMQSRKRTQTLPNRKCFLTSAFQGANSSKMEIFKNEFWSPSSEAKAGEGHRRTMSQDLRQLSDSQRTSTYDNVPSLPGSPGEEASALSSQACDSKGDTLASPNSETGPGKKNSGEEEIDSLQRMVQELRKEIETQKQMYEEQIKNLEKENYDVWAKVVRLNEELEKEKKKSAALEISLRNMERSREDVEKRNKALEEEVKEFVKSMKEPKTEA

B1: RAB27A (natural protein, UniProt P51159 1-221, looked up)
chain: MSDGDYDYLIKFLALGDSGVGKTSVLYQYTDGKFNSKFITTVGIDFREKRVVYRASGPDGATGRGQRIHLQLWDTAGQERFRSLTTAFFRDAMGFLLLFDLTNEQSFLNVRNWISQLQMHAYCENPDIVLCGNKSDLEDQRVVKEEEAIALAEKYGIPYFETSAANGTNISQAIEMLLDLIMKRMERCVDKSWIPEGVVRSNGHASTDQLSEEKEKGACGC
notes: RAB27A, small GTPase, endogenous in human neutrophilic granulocytes; In some pull-downs the lysate was loaded with GTPγS or GDPβS beforehand; source: endogenous, human neutrophilic granulocyte lysate
B2: RHOG (natural protein)
chain: not shown
notes: RHOG, small GTPase of the Rac subfamily, endogenous in human neutrophilic granulocytes; In some pull-downs the lysate was loaded with GTPγS or GDPβS beforehand; source: endogenous, human neutrophilic granulocyte lysate
B3: ARF4 (natural protein, UniProt P18085 1-180, looked up)
chain: MGLTISSLFSRLFGKKQMRILMVGLDAAGKTTILYKLKLGEIVTTIPTIGFNVETVEYKNICFTVWDVGGQDRIRPLWKHYFQNTQGLIFVVDSNDRERIQEVADELQKMLLVDELRDAVLLLFANKQDLPNAMAISEMTDKLGLQSLRNRTWYVQATCATQGTGLYEGLDWLSNELSKR
notes: ARF4, small GTPase, endogenous in human neutrophilic granulocytes; In some pull-downs the lysate was loaded with GTPγS or GDPβS beforehand; source: endogenous, human neutrophilic granulocyte lysate

biological target: T1, GST-fused recombinant ARHGAP25; experiment: affinity purification with mass spectrometry; GST-ARHGAP25 on glutathione agarose beads incubated with neutrophil lysate loaded beforehand with GTPγS or GDPβS (15 mM EDTA, 15 min, RT; stopped with 60 mM MgCl2), 45 min, 4 °C; LFQ values of the two loadings compared; conditions: one partner purified

log2ΔFC of LFQ values, GTPγS-loaded against GDPβS-loaded lysate	Binder
< 0.2	B1
0.589	B2
< 0.2	B3
